Legend:
Assay in all cases: SPR; Lge1-CT immobilised on a CM5 chip, Bre1-LR flown over; Biacore 8K, 25°C, 20 mM HEPES (pH 7.5), 200 mM sodium chloride, 0.02% Tween 20
Settings in all cases: both partners purified
Bre1-LR K352E = target: T1, Bre1-LR K352E (budding yeast, UniProt Q07457 227-700, K352E)
T1 construct: source: E. coli BL21 Rosetta (DE3), purified (Ni-NTA, heparin, gel filtration)
T1 sequence (looked up): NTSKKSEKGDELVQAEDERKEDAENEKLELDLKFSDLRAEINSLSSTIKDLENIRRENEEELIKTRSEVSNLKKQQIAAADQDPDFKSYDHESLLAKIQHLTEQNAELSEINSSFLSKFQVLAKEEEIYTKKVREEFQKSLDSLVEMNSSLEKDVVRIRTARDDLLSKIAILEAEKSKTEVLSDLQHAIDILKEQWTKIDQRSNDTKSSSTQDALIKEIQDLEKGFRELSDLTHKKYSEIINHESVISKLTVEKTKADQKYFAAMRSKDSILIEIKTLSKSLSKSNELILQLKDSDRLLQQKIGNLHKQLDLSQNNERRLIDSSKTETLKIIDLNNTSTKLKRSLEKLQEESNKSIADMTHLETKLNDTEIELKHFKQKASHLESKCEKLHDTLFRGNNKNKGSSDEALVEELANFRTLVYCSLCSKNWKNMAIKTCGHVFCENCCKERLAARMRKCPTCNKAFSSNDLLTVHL

Bre1-LR A489N = target: T2, Bre1-LR A489N (budding yeast, UniProt Q07457 227-700, A489N)
T2 construct: source: E. coli BL21 Rosetta (DE3), purified (Ni-NTA, heparin, gel filtration)
T2 sequence (looked up): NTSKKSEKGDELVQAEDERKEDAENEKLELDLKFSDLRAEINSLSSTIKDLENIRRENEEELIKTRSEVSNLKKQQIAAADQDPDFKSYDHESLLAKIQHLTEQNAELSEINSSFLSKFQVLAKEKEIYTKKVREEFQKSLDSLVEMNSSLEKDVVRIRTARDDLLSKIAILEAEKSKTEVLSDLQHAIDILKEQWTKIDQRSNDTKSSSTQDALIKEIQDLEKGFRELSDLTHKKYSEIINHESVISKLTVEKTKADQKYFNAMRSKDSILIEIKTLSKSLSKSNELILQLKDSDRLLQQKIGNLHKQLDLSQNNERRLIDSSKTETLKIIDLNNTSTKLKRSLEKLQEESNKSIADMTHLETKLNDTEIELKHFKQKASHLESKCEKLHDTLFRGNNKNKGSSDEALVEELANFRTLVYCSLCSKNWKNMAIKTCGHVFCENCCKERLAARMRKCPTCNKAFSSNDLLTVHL

Bre1-LR E378K/E500K = target: T3, Bre1-LR E378K/E500K (budding yeast, UniProt Q07457 227-700, E378K | E500K)
T3 construct: source: E. coli BL21 Rosetta (DE3), purified (Ni-NTA, heparin, gel filtration)
T3 sequence (looked up): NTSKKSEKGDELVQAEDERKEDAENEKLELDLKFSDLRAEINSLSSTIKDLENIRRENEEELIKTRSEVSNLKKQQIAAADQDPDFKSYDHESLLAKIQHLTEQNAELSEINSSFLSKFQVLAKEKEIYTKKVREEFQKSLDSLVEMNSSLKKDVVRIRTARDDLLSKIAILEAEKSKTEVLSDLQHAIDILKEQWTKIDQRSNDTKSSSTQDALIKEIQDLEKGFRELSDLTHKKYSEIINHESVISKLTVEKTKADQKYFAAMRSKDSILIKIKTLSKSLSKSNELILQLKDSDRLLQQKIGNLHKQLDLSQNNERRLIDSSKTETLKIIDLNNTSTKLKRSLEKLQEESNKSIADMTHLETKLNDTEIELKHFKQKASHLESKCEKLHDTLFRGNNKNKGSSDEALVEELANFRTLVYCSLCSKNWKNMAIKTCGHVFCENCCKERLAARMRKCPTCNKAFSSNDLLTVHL

[1] = target: T4, Bre1-LR (Bre1 residues 227–700, LBD and RING domains), 6× histidine tag (budding yeast, UniProt Q07457 227-700)
T4 construct: two Bre1 polypeptides form the dimeric coiled-coils of the LBD in the crystal structure; also called WT; source: E. coli BL21 Rosetta (DE3), purified (Ni-NTA, heparin, gel filtration)
T4 sequence (looked up): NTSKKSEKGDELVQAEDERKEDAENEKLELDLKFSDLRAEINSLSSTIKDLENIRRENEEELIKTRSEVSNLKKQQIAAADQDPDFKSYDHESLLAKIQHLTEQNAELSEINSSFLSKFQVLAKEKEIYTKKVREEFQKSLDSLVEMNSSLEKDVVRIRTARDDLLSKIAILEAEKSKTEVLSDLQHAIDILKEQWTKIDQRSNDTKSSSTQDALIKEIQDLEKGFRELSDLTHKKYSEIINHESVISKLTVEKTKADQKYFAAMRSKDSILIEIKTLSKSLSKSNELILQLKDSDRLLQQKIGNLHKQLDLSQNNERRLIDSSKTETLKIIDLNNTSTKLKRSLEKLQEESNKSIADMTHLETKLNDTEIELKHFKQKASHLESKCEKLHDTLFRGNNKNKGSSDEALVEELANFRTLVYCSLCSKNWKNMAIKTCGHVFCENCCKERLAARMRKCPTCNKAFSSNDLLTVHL

B1: Lge1-CT (Lge1 residues 261–332), intein-chitin binding domain (CBD) tag construct (domain or fragment, budding yeast, UniProt Q02796 261-332, looked up)
chain: KNVKKTNNTESECEKAREVFKESDSIDSALEELNLKINSNELELRLLNNQCDKHALNIQLTQEKLDSLLLMQ
notes: Lge1, budding yeast, residues 261-332; residues 268–331 resolved in the electron density; the intein-CBD tag is named on the protein in the pull-down; also called intein-CBD-fused Lge1-CT; intein-CBD-tagged Lge1-CT; source: E. coli BL21 Rosetta (DE3): cleared cell extract on chitin resin (pull-down); purified (chitin, heparin, gel filtration) for ITC and SPR; co-purified with Bre1-LR for the …
B1 gave a Kd (Bre1-LR K352E) of 76.6 nM, a Kd (Bre1-LR A489N) of 41.1 nM and a Kd (Bre1-LR E378K/E500K) of 29 nM. It also gave a Kd [1] of 17.5 nM.

Reference: PMC12802937 (Nucleic Acids Research, 2026)
